According to publication PMC4655838, “Versatility in phospho-dependent molecular recognition of the XRCC1 and XRCC4 DNA-damage scaffolds by aprataxin-family FHA domains” (DNA Repair, 2015):
Residue numbers refer to the chain shown, from its start. Square brackets hold non-standard residues; d marks the D form. Ends that are not written are not given here. pT = C[C@@H](OP(=O)(O)O)[C@H](N)C(=O)O; pS = N[C@@H](COP(=O)(O)O)C(=O)O

Assays:
[1] = molecular target: T1, APLF FHA domain (residues 1-106) (UniProt Q8IW19 1-106); assay: ITC; peptide injected (30 x 10 ul) into FHA domain in the cell; 22 °C; 50 mM HEPES pH 7.5, 150 mM NaCl, 5 mM β-mercaptoethanol; XRCC1 peptides 1 mM into 100 μM protein, XRCC4 peptides 300 μM into 30 μM protein; single-site binding model; details: both partners purified
T1 construct: Cloned BamHI/XhoI in pGEX-6P-1; also called aprataxin- and PNKP-like factor FHA domain; source: E. coli Rosetta2 (DE3), purified (glutathione resin, cleaved with rhinovirus 3C protease, Superdex 75); not shown: GST, N-terminal, cleaved
T1 sequence (looked up): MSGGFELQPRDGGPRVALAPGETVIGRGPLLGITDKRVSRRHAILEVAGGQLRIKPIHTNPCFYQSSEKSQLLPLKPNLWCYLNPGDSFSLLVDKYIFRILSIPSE

[2] = molecular target: T2, selenomethionine-labelled APLF FHA domain L91M (residues 1-106) (UniProt Q8IW19 1-106, L91 M, selenomethionine-labelled); assay: crystal structure; selenomethionine-labelled APLF FHA L91M with peptide at 1:3; hanging drops at 18 °C, 0.1 M Tris pH 8.0, 30% PEG 3350, 0.2 M MgCl2; SAD, refined at 1.4 Å; details: both partners purified
T2 construct: residues 1-104 are in the final model; also called APLF L91 M; APLF/XRCC4 SeMet; source: E. coli Rosetta2 (DE3) in SelenoMet medium, purified as the wild-type protein; not shown: GST, N-terminal, cleaved
T2 sequence (looked up): T1 sequence (looked up) with L91M

B1: XRCC1 515-529 peptide phosphorylated on Ser518 and Thr519 (peptide)
peptide: YAGSTDENTDSEEHQ
HELM: PEPTIDE1{Y.A.G.[O=C([C@H](COP(=O)(O)O)N[*:1])[*:2]].[C[C@@H](OP(=O)(O)O)[C@H](N[*:1])C(=O)[*:2]].D.E.N.T.D.S.E.E.H.Q.[am]}$$$$V2.0; N-terminus assumed
SMILES: C[C@H](NC(=O)[C@@H](N)Cc1ccc(O)cc1)C(=O)NCC(=O)N[C@@H](COP(=O)(O)O)C(=O)N[C@H](C(=O)N[C@@H](CC(=O)O)C(=O)N[C@@H](CCC(=O)O)C(=O)N[C@@H](CC(N)=O)C(=O)N[C@H](C(=O)N[C@@H](CC(=O)O)C(=O)N[C@@H](CO)C(=O)N[C@@H](CCC(=O)O)C(=O)N[C@@H](CCC(=O)O)C(=O)N[C@@H](Cc1c[nH]cn1)C(=O)N[C@@H](CCC(N)=O)C(N)=O)[C@@H](C)O)[C@@H](C)OP(=O)(O)O
notes: XRCC1 residues 515-529; also called di-phosphorylated XRCC1 peptide; source: synthetic peptide (Dr. W. Mawby, University of Bristol), purified by HPLC
- fold increase in binding over the mono-phosphorylated peptide [1]: ~3 fold

B2: XRCC1 515-529 peptide phosphorylated on Ser518, Thr519 and Thr523 (peptide)
peptide: YAG[pS][pT]DEN[pT]DSEEHQ-NH2
modifications: N-terminus assumed
SMILES: C[C@H](NC(=O)[C@@H](N)Cc1ccc(O)cc1)C(=O)NCC(=O)N[C@@H](COP(=O)(O)O)C(=O)N[C@H](C(=O)N[C@@H](CC(=O)O)C(=O)N[C@@H](CCC(=O)O)C(=O)N[C@@H](CC(N)=O)C(=O)N[C@H](C(=O)N[C@@H](CC(=O)O)C(=O)N[C@@H](CO)C(=O)N[C@@H](CCC(=O)O)C(=O)N[C@@H](CCC(=O)O)C(=O)N[C@@H](Cc1c[nH]cn1)C(=O)N[C@@H](CCC(N)=O)C(N)=O)[C@@H](C)OP(=O)(O)O)[C@@H](C)OP(=O)(O)O
notes: XRCC1 residues 515-529; also called YAGpSpTDENpTDSEEHQ; tri-phosphorylated XRCC1 peptide; source: synthetic peptide (Dr. W. Mawby, University of Bristol), purified by HPLC
- fold weaker binding than the triphosphorylated XRCC4 peptide [1]: 26 fold
- stoichiometry N [1]: ~2 APLF FHA domains per peptide

B3: XRCC1 515-529 peptide phosphorylated on Ser518, Thr519, Thr523 and Ser525 (peptide)
peptide: YAG[pS][pT]DEN[pT]D[pS]EEHQ-NH2
modifications: N-terminus assumed
SMILES: C[C@H](NC(=O)[C@@H](N)Cc1ccc(O)cc1)C(=O)NCC(=O)N[C@@H](COP(=O)(O)O)C(=O)N[C@H](C(=O)N[C@@H](CC(=O)O)C(=O)N[C@@H](CCC(=O)O)C(=O)N[C@@H](CC(N)=O)C(=O)N[C@H](C(=O)N[C@@H](CC(=O)O)C(=O)N[C@@H](COP(=O)(O)O)C(=O)N[C@@H](CCC(=O)O)C(=O)N[C@@H](CCC(=O)O)C(=O)N[C@@H](Cc1c[nH]cn1)C(=O)N[C@@H](CCC(N)=O)C(N)=O)[C@@H](C)OP(=O)(O)O)[C@@H](C)OP(=O)(O)O
notes: XRCC1 residues 515-529; also called tetra-phosphorylated XRCC1 peptide; source: synthetic peptide (Dr. W. Mawby, University of Bristol), purified by HPLC
- stoichiometry N [1]: ~2 APLF FHA domains per peptide

B4: XRCC4 229-237 peptide phosphorylated on Ser232, Thr233 and Ser237 (peptide)
peptide: YDE[pS][pT]DEE[pS]-NH2
modifications: N-terminus assumed
SMILES: C[C@@H](OP(=O)(O)O)[C@H](NC(=O)[C@H](COP(=O)(O)O)NC(=O)[C@H](CCC(=O)O)NC(=O)[C@H](CC(=O)O)NC(=O)[C@@H](N)Cc1ccc(O)cc1)C(=O)N[C@@H](CC(=O)O)C(=O)N[C@@H](CCC(=O)O)C(=O)N[C@@H](CCC(=O)O)C(=O)N[C@@H](COP(=O)(O)O)C(N)=O
notes: also called tri-phosphorylated XRCC4 peptide; triphosphorylated XRCC4; source: synthetic peptide (Dr. W. Mawby, University of Bristol), purified by HPLC
- binding result [2]: binds

B5: XRCC4 229-237 peptide phosphorylated on Thr233 (peptide)
peptide: YDESTDEES
HELM: PEPTIDE1{Y.D.E.S.[C[C@@H](OP(=O)(O)O)[C@H](N[*:1])C(=O)[*:2]].D.E.E.S.[am]}$$$$V2.0; N-terminus assumed
SMILES: C[C@@H](OP(=O)(O)O)[C@H](NC(=O)[C@H](CO)NC(=O)[C@H](CCC(=O)O)NC(=O)[C@H](CC(=O)O)NC(=O)[C@@H](N)Cc1ccc(O)cc1)C(=O)N[C@@H](CC(=O)O)C(=O)N[C@@H](CCC(=O)O)C(=O)N[C@@H](CCC(=O)O)C(=O)N[C@@H](CO)C(N)=O
notes: also called mono-phosphorylated (pT233) XRCC4; XRCC4 peptide phosphorylated solely on the threonine in the core motif; source: synthetic peptide (Dr. W. Mawby, University of Bristol), purified by HPLC
- fold tighter binding than the XRCC1 pThr519 peptide [1]: ~8 fold
